Test: soluble fraction after stress (log2 fold change); higher = more stays soluble; pooled small domains, quantitative proteomics
Details: stress: 75 degC
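Also: 20 min heating vs room temperature control held 20 min.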

In order of falling “soluble fraction (log2)” value:
1. HMIEESTVPDLKGKSQEDAIKLLEDANLKYQIVEEESKKIEAGYVISQETDANKKVNAGDTVIIHVST  0.645
2. HMHSLGDQVFETIKELIVNNTYQPGELLQIDKLAAEFGVSTTPVREALLRLEGLGLVDIERNKAAVVT  0.447
3. HMIGVIVDEVDPDSSLKSGDIITEVNREVILNIDDFVGLVEQIQKTGRSSLLLKILRDKKSLWVTIQFV  0.267
4. HMIDQIAEQLQQRLAVDTAFATIQRDYPDVIANKDIELLTAIKVNQKIAEGASRASAMLESAKEVYETL  0.196
5. HMIEKVNDYVVRFANVNGTGSASANNLFALAIYRMGVPVTPKNIFPSNIQGLPTWFEVRVSGSGYLARRG  0.162
6. HMIEIKNLSFSYGKKKQSVFNDFSLTLDKGSVYGLLGKNGTGKSTLLYLMTGLLRPQAGQVLYKGVDVS  0.141
7. HMHPTEKNLTSLLADGSFYMNQNKLETAYDTFTKTIELDPSWAEAWNKRATVLYLMGKYELSQADIDQV  0.0869
8. HMIKEVGYEKFMQMTEEEDIGRVEIDQEENQITFTDKDETAIYKTGMVDDPDLTERLYDAGAEFS  0.0721
9. HMIDEPENLIQEDKMVNIIYDLALLEGVKTFNSSNFQSVKSNDFVYKKYKIDSLQFAKSTQFYASDINR  0.0618
10. HMHPTDMKLTARLEEGAQFVRTQQLSKAIEIFTEVIKLDQNWAEAWNKRATVFYMMGKFKQSQEDIDKVLA  0.0611
11. HMIAWNFDTMKESLSEMERVDYQEFIKAFLSLELSISDRTILNQVYQDYMDEDDLSLISDELRV  0.0602
12. HMIDFDEIEILSSSKIEKIENSEYLKSSIFEKDSNQYIYRLSFENRDQLKNFKKEIEDIDQIKKIDVTY  0.0545
13. HMHSILDDIEGIGPARRKALMRHYMNLDAIKSATVEELAAVPSMNEKSAKAVHNFFHQQKKD  0.0285
14. HMIKDSKAAYKILGVDENATNEEIKKAYRQLVINHHPDKVSHLGEDIQRAANEKLKQINAAYDEIKKQRGF  -0.0128
15. HMHRGTPASIIAAAKQYLTGGQTVELYEREGGPWTFRLRTYLSETPYPEKVRASVEALKPAGVVFLYELQS  -0.019
16. HMIENGILELKGKTGVAQTVLRPSGKVLIDDEIYDAVALTGYIEKADKVLVTKVEATQLYVEK  -0.0378
17. HMIDENILSEEIKHYIETNNYAKDDKLPSERSLASLFNVSRALVRKSLISLVDVNYLYVKDKSGYYING  -0.0579
18. HMHSPLLDRYLAEVGWRLRHLSGAQREDILAGLREHIADLESAGVAPEEIVARLGSPESVADAAAGEF  -0.0802
19. HMIERLVVSPAAGVFTKKMSVENNTRIDVGHVLGHVGETEVRSPFAGILQNYIAVDGERLTAHQPIAWLRS  -0.0936
20. HMHYALTVDFPAALEARIDPAHRAALRGVLAHDPRPSYQSDPERLYGVAFAGKNVKFTVEDGVLTVRKIEE  -0.151
21. HMIADPAKPDWTTILAPVTTGTTVTHKTFGQGTVTKLDKTKKYLTVSFAAGQKNFVFPNAFIDGFLK  -0.159
22. HMHVLAVDEALHKLTELNELHAKIVEMRFFSGMTVQEVADELGVSKRKIESEWTMIKAWLRKELN  -0.199
23. HMIDELLDPTHRIMVRHPRVDYVSPGFLIGPDKDVILWGFTGGIIARLFDFLGWTRPWDQSHVQDLPPYML  -0.245
24. HMHVGVWIMNEKGEILLEQRASNKKVDPNKWARIGGHVDAGEKPIQAIQREILEEIGVKIPLENFIVLET  -0.266
25. HMHREITGSLAERNGRYTAILNLYDEDGKRRQKSIALGIPVKGNKRKAQAQLEELKRAYSLGLPQ  -0.346
26. HMHSKQRDAIFENLRSRKDHPTAEEIYLSLKPAMPAISLATVYRNLAQLENEGLILRLGSGGSARYDGDT  -0.467
27. HMHTSEDLEKLLTRYFQSHESINRQQFEQLSGFTRTTASRRLKALVEAGKLKNIGLHHFPVYKPTEGNF  -0.485
28. HMIAGHLQEKKGFFYIVLSYPDAAGKRKTKWFPTKLSVKGNKKKAEVMLMDARKTFVPPETPL  -0.497
29. HMIDHKVIRSFRQKRNMTLQELAQKANLSVSYLSEIELGKKQPSLETLDKLSKALNISLEGL  -0.535
30. HMHQVHKIDGVKYYLHLVEKGNTLYGISKQYNVSVERIEKANTEALSDGLKENQTLLIPVTSDNKKT  -0.537
31. HMIHQIPVNVQKIRQIIGINLNENDYLNYLAKLGFVIDEGLIIVPSFRSDVKTQNDLAEEIARV  -0.547
32. HMHRTMFYLDVDLAEGQSVKMAVHEDDDPGELAARFADEHQLKSRAMEKLRSVIEENVRLHRRNQ  -0.57
33. HMIESVMVGIKELLGDTIDQKYEKYIRLGGIPSDEVDEFNSVFSAYEKVNGNHNGKKKYDYVMNNLPIIPV  -0.574
34. HMIAVLEEGSRFRAINDISGKPFGPEMIIKNGQVIAAGKKILTKPKKLIGKKEGTKFNISGKEYVIKDI  -0.747
35. HMHSPTFYVHVVGQVKVPGVYELEVGSRLFDAVIAAGGFKDDADQASVNLARPLSDGEQIVVLKLGDQ  -0.777
36. HMIERVLRTEEHIEAFAGEEVEAKLFAPIDGKKTLRGILGGIEDGRVILTVGDTEYRIEHAKISRLTTVFD  -0.881
37. HMHPKTPDELLALMSEEQRGQIEQLAKLVLMAVSYSGASYYDAVTTMYPRMSEERRRIITHVLNTASP  -0.908
38. HMIDNFFTIRFNYSKINEVIRLLKEFNGEIFNKNYDKNEYIIEFSIPKKDAALLISKLKNITGLTIEQ  -1
39. HMIADSSSIHQDAKQQLHSYLRTNIQPLMRAGKQLDLKDILHHVTIRKPKLVQQLGMKQVQHMVQVLLD  -1.04
40. HMHYNMNYLENLTKTELFDLAKNKFGLTYAEMERHLSIPEGGARYAIKAEHSKYGSDIKKYLVEFLLE  -1.06
41. HMIDIGSKIKKLRSKKSIEIGKKYTGAMLANELGISRSYLGDIESGRTVPNEIILGKIADIFDVDIYELIG  -1.06
42. HMHRIKRRNDTLVSALDSIAGIGAKRKKALLQHFGSVRAIKAVSAEEIAKVEGISPTLANQIFEAL  -1.07
43. HMHRTRNAERTRAAVLKAAAEVLAERGTGASLARIAEVAGVSKSGLLHHFANREQLIVALLED  -1.16
44. HMHPVTGRIGTVTAANGLNLRADSSEYANVVATLGYGVDVTVTGERINGFYPVRVGTLSGYVSADYVSFNS  -1.23
45. HMIKEGDLVFIWNPKKGDSFLIKVQPGQSQGTHFGQIKHSEIMEHNYGEGIRTPKGQVYYLLRPTLGEFTR  -1.4
46. HMHVSLSGKIHSELRKLILNGELKAGERLPSEPDLAHELGVSRNSLREAIGLLQREGLLLKKHGIGTFVTD  -1.42
47. HMIIVMKRNATETQIDHVVRWVESIGYRAHRSNGTEQTVVKAVGGERGGEELKYLAALSGVEKVVPIR  -1.49
48. HMHVYQSLVTDRVVPGGGYRTTEAILSTEAWRNTLLEQAKRELIGVRNKYASLTELAKVWTAIDTVT  -1.65
49. HMIDLPEAFIQQLKEAVDVGDVTGLRELLGQLRRRYPQQSALSDEAERLLREFDFERLAQLFEGLD  -1.67
50. HMIETIQVPRAFNDWHEQADKTKSVFEVYAEIEASENEKLIAWVRNNQNEFAKIWLGALIPELE  -1.7
51. HMHSIFPVIRSTSFPTKSNDGELFITSDHTAETRIYYALDLGNTYRLIDQKVMNEINLTESLVKETARF  -1.72
52. HMIINFDAIKLTTELNKYKRHKAIPNTFFDGTYTILDVRELYNDLTPKAQKIADELIEHYNVDVK  -1.73
53. HMIINLGELLKMLEVNKYQDAMDALDSLIEEGGSLEKIESLHEIRQHTHAMNFREAERLLSILIESEGA  -1.73
54. HMIKIDESTLSEDELKIFEILKIEDKNIENIAIESKILPGKLLATLMNMEMKKIVVQYPGKVFGLNRKLK  -1.81
55. HMIGHIGSAVMLNAKLRPRLPLLHVLALTQSLGERLSAAEAQPEVYRWSDPGQSRVIAEFEGGRLTRWRLE  -2.05
56. HMIDSVFASYRQVALDDELWDKVRNGAVLPKVELFEVMDGPVLFTYQSKIVAMYEPHPTKAGYIKPRKMFL  -2.09
57. HMIDHLPPQRAAVLAFLQRELVAGRSPSLAEIALAFGFASRNAAQKHVQALVADGLLEQATGRSRGLRLPG  -2.17
58. HMHYKLIIFENHTKSTSLDITPEQARQILGVTDYTPEQYEILAEITNRPASYFMDDLVDYYVD  -2.33
59. HMIAPQISSGKVNTKELNVRSGPATTFGIVKKLPLNAMVGIFEEKNGWFRIATGQWVSKTYVDL  -2.33
60. HMIISPKKLEYRQRIINALGDRKMSLNELSKAMGYKGITTKLSFTVDDMIKSGVIEKVMVGAYAKLHIP  -2.33
61. HMIDDNTIIQIGDSYSKSIRLLGEPIELKNRSLNQKSYFMAVYDFKGRRYRLFFENDVLFDILRD  -2.66
62. HMIEFYTMQDMFYFKLTGDNTSRERREALGKILGIGYGNATQMVSRLNNYGISKEEFSKAIEEIEKQLEA  -2.89
63. HMHTADDFKQLAKQTSNGQLRTRYLALYLFKNGETRTQIATYLGVARGSVNTWVSNYLAHGLEGLQSKP  -2.95
64. HMIDYIKYTVDGKTYELINNWDGTWSRELEAPLVAGRYDLLLEISQNGLVTYIDSSDPRYEFYLDVI  -3.02
65. HMIDRPLTLVEDYERFAGELAKITLRFMLDGRKRFNGRLAGFDEDGKIVLETSFGRFAFSFDEIDSARI  -3.08
66. HMIDTTKILPGQEFKNMQELSVALTGQKMPAGKGYVLQQEKFKLYFSWKKITGTHKLIIDEIYEEPKT  -3.23
67. HMIAITVGSKVRVKAGATFSDGTKPFTEVYNTVYDVQLLSRNGKEARIGIGEQWTGWMYISDLYPADQ  -3.42
68. HMHPLFRVVLAGEPNGVGLDDWLTRHEAELINGPSAIGVLTVKIAMGRRSFETVLDEIRADGETIFVEPV  -3.49
69. HMIELDRTNLLGVFGPKSRPYALLMLSNGEMIKISIGDQFFGWRVYGIDEKSIQVQNGTKQEILRIP  -3.91

— the domain aggregation screens of Martell et al. (2025)
